Assay results published in article PMC2713256, “Tousled kinase TLK1B counteracts the effect of Asf1 in inhibition of histone H3–H4 tetramer formation” (BMC Research Notes, 2009).

Key:
[1] = target: histone H3–H4 dimer (bovine | human) (UniProt P68432); assay: cross-linking; combinations of H3, H4, Asf1 and TLK1B in equivalent amounts, no ATP, 5 min at room temperature in 50 mM phosphate buffer pH 7.2; 3 mM formaldehyde 5 min on ice, stopped with 50 mM glycine; SDS-PAGE, blots for H3, H4, Asf1 and TLK1B
[2] = target: T1, recombinant human TLK1B (GST-TLK1B) (human, UniProt Q9UKI8-3 1-549); assay: pull-down; GST-TLK1B (5 ug with varying amounts of Asf1, or 1 ug each with and without 10 or 100 uM ATP and 1 mM MgCl2), 10 min at room temperature, adsorbed on GSH-Sepharose; bound and unbound fractions on 10% SDS-PAGE stained with Coomassie blue; details: both partners purified
T1 construct: Named GST-TLK1B in the pull-downs and only TLK1B in the cross-linking reactions; also called Tousled kinase TLK1B; source: recombinant, prepared as described previously [10]
T1 sequence (looked up): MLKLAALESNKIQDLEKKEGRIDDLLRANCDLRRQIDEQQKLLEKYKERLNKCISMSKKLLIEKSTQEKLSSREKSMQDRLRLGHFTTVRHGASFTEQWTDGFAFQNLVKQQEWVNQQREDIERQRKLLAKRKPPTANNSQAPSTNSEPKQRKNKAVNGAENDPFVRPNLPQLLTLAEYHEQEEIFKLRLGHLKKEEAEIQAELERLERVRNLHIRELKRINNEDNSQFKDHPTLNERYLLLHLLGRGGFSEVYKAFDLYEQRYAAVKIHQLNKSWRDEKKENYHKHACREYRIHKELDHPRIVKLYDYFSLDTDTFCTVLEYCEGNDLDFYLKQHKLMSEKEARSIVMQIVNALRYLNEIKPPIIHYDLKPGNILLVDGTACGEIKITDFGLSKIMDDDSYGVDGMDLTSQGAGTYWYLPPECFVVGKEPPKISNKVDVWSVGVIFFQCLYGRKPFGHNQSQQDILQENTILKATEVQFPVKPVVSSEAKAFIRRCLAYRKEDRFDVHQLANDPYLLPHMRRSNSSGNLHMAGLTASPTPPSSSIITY

percent inhibition of H3–H4 tetramer formation [1]: 57% | stoichiometry N [2]: 1
B1: recombinant human Asf1B (natural protein, UniProt Q9NVP2 1-202, looked up)
chain: MAKVSVLNVAVLENPSPFHSPFRFEISFECSEALADDLEWKIIYVGSAESEEFDQILDSVLVGPVPAGRHMFVFQADAPNPSLIPETDAVGVTVVLITCTYHGQEFIRVGYYVNNEYLNPELRENPPMKPDFSQLQRNILASNPRVTRFHINWDNNMDRLEAIETQDPSLGCGLPLNCTPIKGLGLPGCIPGLLPENSMDCI
notes: Asf1B, histone H3-H4 chaperone, human, recombinant; source: recombinant, prepared as described previously [10]
